Results as given in patent US20180143213A1.

Experiments:
[1] = target: beta2-adrenergic receptor-luciferase fusion protein (human); experiment: bridge assay (Example 4A), sc-569 at 5000 ng/ml in buffer
[2] = target: beta2-adrenergic receptor-luciferase fusion protein (human); experiment: bridge assay (Example 4A), sc-569 at 50 ng/ml in buffer
[3] = target: beta2-adrenergic receptor-luciferase fusion protein (human); experiment: bridge assay (Example 4A), sc-569 at 20000 ng/ml in buffer
[4] = target: beta2-adrenergic receptor-luciferase fusion protein (human); experiment: bridge assay (Example 4A), sc-569 at 2000 ng/ml in buffer
[5] = target: beta2-adrenergic receptor-luciferase fusion protein (human); experiment: bridge assay (Example 4A), sc-569 at 5 ng/ml in buffer
[6] = target: beta2-adrenergic receptor-luciferase fusion protein (human); experiment: bridge assay (Example 4A), sc-569 at 10 ng/ml in buffer
[7] = target: beta2-adrenergic receptor-luciferase fusion protein (human); experiment: bridge assay (Example 4A), sc-569 at 2 ng/ml in buffer
[8] = target: beta2-adrenergic receptor-luciferase fusion protein (human); experiment: bridge assay (Example 4A), sc-569 at 10000 ng/ml in buffer
[9] = target: beta2-adrenergic receptor-luciferase fusion protein (human); experiment: bridge assay (Example 4A), sc-569 at 1 ng/ml in buffer
[10] = target: beta2-adrenergic receptor-luciferase fusion protein (human); experiment: bridge assay (Example 4A), sc-569 at 500 ng/ml in buffer
[11] = target: beta2-adrenergic receptor-luciferase fusion protein (human); experiment: bridge assay (Example 4A), sc-569 at 200 ng/ml in buffer
[12] = target: beta2-adrenergic receptor-luciferase fusion protein (human); experiment: bridge assay (Example 4A), sc-569 at 100 ng/ml in buffer
[13] = target: beta2-adrenergic receptor-luciferase fusion protein (human); experiment: bridge assay (Example 4A), sc-569 at 20 ng/ml in buffer
[14] = target: beta2-adrenergic receptor-luciferase fusion protein (human); experiment: bridge assay (Example 4A), sc-569 at 1000 ng/ml in buffer

RLU [1]: 1.71e+06 RLU | RLU [2]: 76000 RLU | RLU [3]: 2.87e+06 RLU | RLU [4]: 948000 RLU | RLU [5]: 28100 RLU | RLU [6]: 33400 RLU | RLU [7]: 25800 RLU | RLU [8]: 2.39e+06 RLU | RLU [9]: 24400 RLU | RLU [10]: 392000 RLU | RLU [11]: 187000 RLU | RLU [12]: 93900 RLU | RLU [13]: 45100 RLU | RLU [14]: 558000 RLU
Substance: Antibodies against B2 (sc-569 Santa Cruz, Calif., USA) (antibody)
